Data published in article PMC3258140 (Nucleic Acids Research, 2011).

Molecular target: the molecule itself
Assay: crystal structure

B1: Thermotoga maritima Mre11^(H94Q, F291S) (residues L7M-385), nuclease deficient (enzyme)
chain: MKILHTSDWHLGVTSWTSSRPVDRREELKKALDKVVEEAEKREVDLILLTGDLLHSRNNPSVVALHDLLDYLKRMMRTAPVVVLPGNQDWKGLKLFGNFVTSISSDITFVMSFEPVDVEAKRGQKVRILPFPYPDESEALRKNEGDFRFFLESRLNKLYEEALKKEDFAIFMGHFTVEGLAGYAGIEQGREIIINRALIPSVVDYAALGHIHSFREIQKQPLTIYPGSLIRIDFGEEADEKGAVFVELKRGEPPRYERIDASPLPLKTLYYKKIDTSALKSIRDSCRNFPGYVRVVYEEDSGILPDLMGEIDNLVKIERKSRREIEEVLRESPEEFKEELDKLDYFELFKEYLKKREENHEKLLKILDELLDEVKKSEA
binding result: binds
